We go through one molecule from article PMC4454452 (The Biochemical journal, 2014).

The experiment has as its target CHD4 PHD2 finger (15N-labelled, GST tag cleaved) (uniformly 15N-labelled). In words: NMR titration.

B1: unmodified histone H3 peptide (amino acids 1-12 of histone H3), NMR experiments (peptide)
peptide: ARTKQTARKSTG
Take B1: the Kd – broadly, the constant that tells how readily two partners part at equilibrium – is 18 µM.
